The values below are quoted from earlier work in article PMC5520056, “Cryo-EM structures of the ATP-bound Vps4^E233Q hexamer and its complex with Vta1 at near-atomic resolution” (Nature Communications, 2017).

This series addresses Vta1 VSL (Saccharomyces cerevisiae) (UniProt Q06263).

Chain of Vps4 β-domain (P52917 351-397): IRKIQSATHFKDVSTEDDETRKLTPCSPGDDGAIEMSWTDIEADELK
Chain of Vta1 VSL (Saccharomyces cerevisiae) (Q06263 280-330): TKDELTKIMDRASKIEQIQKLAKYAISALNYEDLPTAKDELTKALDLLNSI

A word on the Kd: it is the equilibrium constant for the complex coming apart. Regarding Vps4 β-domain (from UniProt P52917), the Kd was 85 µM.
